Assay results as given in US20090208976A1.

Target: recombinant rat F1-ATPase β-subunit (purified protein) (rat) (UniProt P10719)
Assay: BiaCore surface plasmon resonance, purified F1-ATPase β-subunit

Chain of UniProt P10719 (P10719 47-529): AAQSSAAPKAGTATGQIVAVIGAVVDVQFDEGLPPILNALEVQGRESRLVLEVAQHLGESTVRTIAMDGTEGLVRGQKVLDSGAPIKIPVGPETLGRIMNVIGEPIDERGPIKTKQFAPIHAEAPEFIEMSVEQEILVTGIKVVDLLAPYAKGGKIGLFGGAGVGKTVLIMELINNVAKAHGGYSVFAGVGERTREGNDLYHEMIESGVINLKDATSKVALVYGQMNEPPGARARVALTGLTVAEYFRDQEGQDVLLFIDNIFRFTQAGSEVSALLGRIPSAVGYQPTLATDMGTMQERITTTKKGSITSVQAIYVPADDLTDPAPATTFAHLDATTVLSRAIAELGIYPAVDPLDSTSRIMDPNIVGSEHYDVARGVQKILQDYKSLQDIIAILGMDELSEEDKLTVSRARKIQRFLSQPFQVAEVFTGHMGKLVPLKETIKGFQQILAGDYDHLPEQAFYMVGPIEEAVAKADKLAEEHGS

Kd: 150 nM
Substance: enterostatin (peptide)
